The text below walks through data of patent US20260071002A1 (Hoffmann-La Roche, published 2026).

For orientation: EC50 means the concentration that produces a half-maximal response.

Test [1] addresses T1, human CEACAM5 (human, UniProt P06731 35-685).
T1 construct: whole, on cells; Target on MKN-45 (DSMZ ACC409) and LS180 (ATCC CL-187) cells; also called carcinoembryonic antigen-related cell adhesion molecule 5; CD66e
T1 sequence (looked up): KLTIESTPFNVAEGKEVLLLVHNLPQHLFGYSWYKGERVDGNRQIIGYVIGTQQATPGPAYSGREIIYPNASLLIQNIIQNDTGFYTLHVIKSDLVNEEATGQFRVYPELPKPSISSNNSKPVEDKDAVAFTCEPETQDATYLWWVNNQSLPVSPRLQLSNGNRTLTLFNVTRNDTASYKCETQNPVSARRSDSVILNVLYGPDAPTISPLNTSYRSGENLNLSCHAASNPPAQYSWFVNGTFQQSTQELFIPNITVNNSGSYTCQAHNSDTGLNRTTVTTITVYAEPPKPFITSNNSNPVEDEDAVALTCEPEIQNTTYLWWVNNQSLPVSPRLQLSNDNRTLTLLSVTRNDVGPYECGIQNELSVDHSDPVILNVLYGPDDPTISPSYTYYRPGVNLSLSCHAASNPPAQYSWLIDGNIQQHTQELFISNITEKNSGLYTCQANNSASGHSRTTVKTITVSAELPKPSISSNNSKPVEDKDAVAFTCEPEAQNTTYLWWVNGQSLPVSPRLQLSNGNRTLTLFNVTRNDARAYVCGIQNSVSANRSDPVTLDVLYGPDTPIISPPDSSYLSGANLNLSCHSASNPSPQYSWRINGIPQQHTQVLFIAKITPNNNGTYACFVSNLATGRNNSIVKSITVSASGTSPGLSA
Nature of the test: FACS on MKN-45 cells expressing human CEACAM5. As for the experimental part: The cellular binding assay was performed as follows.
(§1) 10 μl of a 1×10⁴ MKN-45 (DSMZ ACC409) cell suspension in assay buffer was seeded in all Wells of a 384 well polypropylene plate (Weidmann #23490-101). Then 10 μl of antibodies diluted in assay buffer (double concentrated), at a start concentration of 100 μg/ml, serially diluted 1:4 were added to the plate. After 90 minutes incubation at 4° C., 60 μl assay buffer was added followed by a centrifuge step (330×g, 5 min) and an aspirating step (BioTek washer 405H) where 60 μl of supernatant were discarded. 20 μl of detection antibody (Alpaca anti rabbit IgG Chromotek #srbAF647-1) diluted in assay buffer (double concentrated) to a final concentration of 0.5 μg/ml was added to all Wells followed by 1 hour incubation time at room temperature. The cells were then subjected to two washing steps with 40 μl and 60 μl assay buffer as described above and then resuspended in 20 μl assay buffer. Cell binding was measured on an iQue Screener Plus high throughput FACS device from Sartorius/Intellicyt.

The target in test [2] is T1, human CEACAM5. In words: FACS on MKN-45 cells expressing human CEACAM5. As for the experimental part:
as §1
This is another data set of the same source.

Read-outs that look alike come from different tables or passages of the source.

B1: P1AH2350 (antibody, name in Kabat numbering, V domains shown)
VH: QVQLVQSGAEVKKPGSSVKVSCKASGFNIKDTYMHWVRQAPGQGLEWMGRIDPANGNSKYVPKFQGRVTITADTSTSTAYMELSSLRSEDTAVYYCAVFGYYVSDYAMAYWGQGTLVTVSS
VL: EIVLTQSPATLSLSPGERATLSCRAGESVDIFGVGFLHWYQQKPGQAPRLLIYRASNRATGIPARFSGSGSGTDFTLTISSLEPEDFAVYYCQQTNEDPYTFGQGTKLEIK
Consider B1, for which the EC50 in the test with human CEACAM5 [1] turned out to be 30.1 nM.

B2: P1AH2357 (antibody, name in Kabat numbering, V domains shown)
VH: QVQLVQSGAEVKKPGSSVKVSCKASGFNIKSTYMHWVRQAPGQGLEWMGRIDPANGNSKYVPKFQGRVTITADTSTSTAYMELSSLRSEDTAVYYCAPFGYYVSDYAMAYWGQGTLVTVSS
VL: EIVLTQSPATLSLSPGERATLSCRAGESVDIFGVGFLHWYQQKPGQAPRLLIYRASNRATGIPARFSGSGSGTDFTLTISSLEPEDFAVYYCQQTNEDPYTFGQGTKLEIK
For B2, the EC50 with human CEACAM5 [1] was 2.3 nM.

B3: P1AI5028 (antibody, human IgG1, name in Kabat numbering, V domains shown)
VH: EVQLVESGGGLVQPGGSLRLSCAASGFNIKDTYMHWVRQAPGKGLEWVGRIDPANGNSKYADSVKGRFTISADTSKNTAYLQMNSLRAEDTAVYYCAPFGYYVSDYAMAYWGQGTTVTVSS
VL: EIVLTQSPATLSLSPGERATLSCRAGESVDIFGVGFLHWYQQKPGQAPRLLIYRGSNRATGIPARFSGSGSGTDFTLTISSLEPEDFAVYYCGQTHEDPYTFGQGTKLEIK
B3 returned an EC50 with human CEACAM5 [2] of 7.51 µg/mL.

B4: P1AI5026 (antibody, human IgG1, name in Kabat numbering, V domains shown)
VH: EVQLVESGGGLVQPGGSLRLSCAASGFNIKDTYMHWVRQAPGKGLEWVGRIDPANGNSKYADSVKGRFTISADTSKNTAYLQMNSLRAEDTAVYYCAPFGYYVSDYAMAYWGQGTTVTVSS
VL: EIVLTQSPATLSLSPGERATLSCRAGESVDIFGVGFLHWYQQKPGQAPRLLIYRGSNRATGIPARFSGSGSGTDFTLTISSLEPEDFAVYYCGQTTEDPYTFGQGTKLEIK
B4 yielded a half-maximal effective concentration (EC50) with human CEACAM5 [2] of 1.83 µg/mL.

B5: P1AH2351 (antibody, human IgG1, name in Kabat numbering, V domains shown)
VH: QVQLVQSGAEVKKPGSSVKVSCKASGFNIKDTYMHWVRQAPGQGLEWMGRIDPANGNSKYVPKFQGRVTITADTSTSTAYMELSSLRSEDTAVYYCAAFGYYVSDYAMAYWGQGTLVTVSS
VL: EIVLTQSPATLSLSPGERATLSCRAGESVDIFGVGFLHWYQQKPGQAPRLLIYRASNRATGIPARFSGSGSGTDFTLTISSLEPEDFAVYYCQQTNEDPYTFGQGTKLEIK
notes: Kabat positions
In the case of B5, the EC50 with human CEACAM5 [1] was 39.1 nM.

B6: P1AI5019 (antibody, human IgG1, name in Kabat numbering, V domains shown)
VH: EVQLVESGGGLVQPGGSLRLSCAASGFNIKDTYMHWVRQAPGKGLEWVGRIDPANGNSKYADSVKGRFTISADTSKNTAYLQMNSLRAEDTAVYYCAPFGYYVSDYAMAYWGQGTTVTVSS
VL: EIVLTQSPATLSLSPGERATLSCRAGESVDIFGVGFLHWYQQKPGQAPRLLIYRGSNRATGIPARFSGSGSGTDFTLTISSLEPEDFAVYYCGQTNEDYYTFGQGTKLEIK
For B6, in the test with human CEACAM5 [2], a half-maximal response (EC50) required 2.49 µg/mL.

B7: P1AI5027 (antibody, human IgG1, name in Kabat numbering, V domains shown)
VH: EVQLVESGGGLVQPGGSLRLSCAASGFNIKDTYMHWVRQAPGKGLEWVGRIDPANGNSKYADSVKGRFTISADTSKNTAYLQMNSLRAEDTAVYYCAPFGYYVSDYAMAYWGQGTTVTVSS
VL: EIVLTQSPATLSLSPGERATLSCRAGESVDIFGVGFLHWYQQKPGQAPRLLIYRGSNRATGIPARFSGSGSGTDFTLTISSLEPEDFAVYYCGQTQEDPYTFGQGTKLEIK
Take B7: the EC50 with human CEACAM5 [2] stood at 25.1 µg/mL.

B8: P1AI5023 (antibody, human IgG1, name in Kabat numbering, V domains shown)
VH: EVQLVESGGGLVQPGGSLRLSCAASGFNIKDTYMHWVRQAPGKGLEWVGRIDPANGNSKYADSVKGRFTISADTSKNTAYLQMNSLRAEDTAVYYCAPFGYYVSDYAMAYWGQGTTVTVSS
VL: EIVLTQSPATLSLSPGERATLSCRAGESVDIFGVGFLHWYQQKPGQAPRLLIYRGSNRATGIPARFSGSGSGTDFTLTISSLEPEDFAVYYCGQTNEHPYTFGQGTKLEIK
In the case of B8, in the test with human CEACAM5 [2], the EC50 amounted to 7.21 µg/mL.

B9: P1AH2352 (antibody, human IgG1, name in Kabat numbering, V domains shown)
VH: QVQLVQSGAEVKKPGSSVKVSCKASGFNIKDTYMHWVRQAPGQGLEWMGRIDPANGNSKYVPKFQGRVTITADTSTSTAYMELSSLRSEDTAVYYCATFGYYVSDYAMAYWGQGTLVTVSS
VL: EIVLTQSPATLSLSPGERATLSCRAGESVDIFGVGFLHWYQQKPGQAPRLLIYRASNRATGIPARFSGSGSGTDFTLTISSLEPEDFAVYYCQQTNEDPYTFGQGTKLEIK
notes: Kabat positions
The molecule B9 had an EC50 with human CEACAM5 [1] of 21.9 nM.

B10: P1AI5029 (antibody, human IgG1, name in Kabat numbering, V domains shown)
VH: EVQLVESGGGLVQPGGSLRLSCAASGFNIKDTYMHWVRQAPGKGLEWVGRIDPANGNSKYADSVKGRFTISADTSKNTAYLQMNSLRAEDTAVYYCAPFGYYVSDYAMAYWGQGTTVTVSS
VL: EIVLTQSPATLSLSPGERATLSCRAGESVDIFGVGFLHWYQQKPGQAPRLLIYRGSNRATGIPARFSGSGSGTDFTLTISSLEPEDFAVYYCGQTKEDPYTFGQGTKLEIK
Molecule B10 gave an EC50 with human CEACAM5 [2] of 1.92 µg/mL.

B11: P1AH2354 (antibody, human IgG1, name in Kabat numbering, V domains shown)
VH: QVQLVQSGAEVKKPGSSVKVSCKASGFNIKDTYMHWVRQAPGQGLEWMGRIDPANGNSKYVPKFQGRVTITADTSTSTAYMELSSLRSEDTAVYYCASFGYYVSDYAMAYWGQGTLVTVSS
VL: EIVLTQSPATLSLSPGERATLSCRAGESVDIFGVGFLHWYQQKPGQAPRLLIYRASNRATGIPARFSGSGSGTDFTLTISSLEPEDFAVYYCQQTNEDPYTFGQGTKLEIK
notes: Kabat positions
Take B11: the 50% effective concentration (EC50) with human CEACAM5 [1] came to 20.4 nM.

B12: P1AI5013 (antibody, human IgG1, V domains shown)
VH: EVQLVESGGGLVQPGGSLRLSCAASGFNIKDTYMHWVRQAPGKGLEWVGRIDPANGNSKYADSVKGRFTISADTSKNTAYLQMNSLRAEDTAVYYCAPFGYYVSDYAMAYWGQGTTVTVSS
VL: EIVLTQSPATLSLSPGERATLSCRAGESVDHFGVGFLHWYQQKPGQAPRLLIYRASNRATGIPARFSGSGSGTDFTLTISSLEPEDFAVYYCQQTNEDPYTFGQGTKLEIK
On to B12, for which, in the test with human CEACAM5 [2], the EC50 is 0.685 µg/mL.

B13: P1AI5024 (antibody, human IgG1, name in Kabat numbering, V domains shown)
VH: EVQLVESGGGLVQPGGSLRLSCAASGFNIKDTYMHWVRQAPGKGLEWVGRIDPANGNSKYADSVKGRFTISADTSKNTAYLQMNSLRAEDTAVYYCAPFGYYVSDYAMAYWGQGTTVTVSS
VL: EIVLTQSPATLSLSPGERATLSCRAGESVDIFGVGFLHWYQQKPGQAPRLLIYRGSNRATGIPARFSGSGSGTDFTLTISSLEPEDFAVYYCGQTYEDPYTFGQGTKLEIK
Molecule B13 yielded an EC50 with human CEACAM5 [2] of 11.5 µg/mL.

B14: P1AI5032 (antibody, human IgG1, name in Kabat numbering, V domains shown)
VH: EVQLVESGGGLVQPGGSLRLSCAASGFNIKDTYMHWVRQAPGKGLEWVGRIDPANGNSKYADSVKGRFTISADTSKNTAYLQMNSLRAEDTAVYYCAPFGYYVSDYAMAYWGQGTTVTVSS
VL: EIVLTQSPATLSLSPGERATLSCRAGESVDHFGVGFLHWYQQKPGQAPRLLIYRGSNRATGIPARFSGSGSGTDFTLTISSLEPEDFAVYYCQQTNEDPYTFGQGTKLEIK
notes: Double mutant of T84.66-LCHA VL
For the molecule B14, a half-maximal effect with human CEACAM5 [2] (EC50) was put at 1.53 µg/mL.

B15: P1AI5021 (antibody, human IgG1, name in Kabat numbering, V domains shown)
VH: EVQLVESGGGLVQPGGSLRLSCAASGFNIKDTYMHWVRQAPGKGLEWVGRIDPANGNSKYADSVKGRFTISADTSKNTAYLQMNSLRAEDTAVYYCAPFGYYVSDYAMAYWGQGTTVTVSS
VL: EIVLTQSPATLSLSPGERATLSCRAGESVDIFGVGFLHWYQQKPGQAPRLLIYRGSNRATGIPARFSGSGSGTDFTLTISSLEPEDFAVYYCGQTNEPPYTFGQGTKLEIK
B15 yielded an EC50 with human CEACAM5 [2] of 1.62 µg/mL.

B16: P1AI5030 (antibody, human IgG1, name in Kabat numbering, V domains shown)
VH: EVQLVESGGGLVQPGGSLRLSCAASGFNIKDTYMHWVRQAPGKGLEWVGRIDPANGNSKYADSVKGRFTISADTSKNTAYLQMNSLRAEDTAVYYCAPFGYYVSDYAMAYWGQGTTVTVSS
VL: EIVLTQSPATLSLSPGERATLSCRAGESVDIFGVGFLHWYQQKPGQAPRLLIYRGSNRATGIPARFSGSGSGTDFTLTISSLEPEDFAYYYCGQTNEDPYTFGQGTKLEIK
In the case of B16, a half-maximal response with human CEACAM5 [2] (EC50) required 11.2 µg/mL.

B17: P1AI5025 (antibody, human IgG1, name in Kabat numbering, V domains shown)
VH: EVQLVESGGGLVQPGGSLRLSCAASGFNIKDTYMHWVRQAPGKGLEWVGRIDPANGNSKYADSVKGRFTISADTSKNTAYLQMNSLRAEDTAVYYCAPFGYYVSDYAMAYWGQGTTVTVSS
VL: EIVLTQSPATLSLSPGERATLSCRAGESVDIFGVGFLHWYQQKPGQAPRLLIYRGSNRATGIPARFSGSGSGTDFTLTISSLEPEDFAVYYCGQTSEDPYTFGQGTKLEIK
As to B17, the EC50 in the test with human CEACAM5 [2] turned out to be 2.44 µg/mL.
